In patent publication US20250092154A1 (UCI THERAPEUTICS, published 2025):

B1: mesothelin-specific CAR comprising humanized scFv #19-1, on cells (293T cells; PBNK cells) (receptor)
chain: EIVLTQSPATLSLSPGERATLSCSASSSVSYMHWYQQKPGQAPRLLIYDTSKLASGIPARFSGSGSGTDFTLTISSLEPEDFAVYYCQQWSSNPLTFGQGTKLEIKRGGGGSGGGGSGGGGSQVQLVQSGAEVKKPGASVKVSCKASGYTFTDYNMNWVRQAPGQGLEWMGVINPNYGTTSYNQKFKGRVTMTRDTSTSTVYMELSSLRSEDTAVYYCARGDYDGAGFAYWGQGTLVTVSSTTTPAPRPPTPAPTIASQPLSLRPEACRPAAGGAVHTRGLDFACDIYIWAPLAGTCGVLLLSLVITLYCKRGRKKLLYIFKQPFMRPVQTTQEEDGCSCRFPEEEEGGCELRVKFSRSADAPAYKQGQNQLYNELNLGRREEYDVLDKRRGRDPEMGGKPRRKNPQEGLYNELQKDKMAEAYSEIGMKGERRRGKGHDGLYQGLSTATKDTYDALHMQALPPR
notes: also called #19-1 CAR; MSLN-CAR
B2: humanized antibody #19-1 (#19-1 scFv-Fc) (Fc fusion)
scFv: EIVLTQSPATLSLSPGERATLSCSASSSVSYMHWYQQKPGQAPRLLIYDTSKLASGIPARFSGSGSGTDFTLTISSLEPEDFAVYYCQQWSSNPLTFGQGTKLEIKRGGGGSGGGGSGGGGSQVQLVQSGAEVKKPGASVKVSCKASGYTFTDYNMNWVRQAPGQGLEWMGVINPNYGTTSYNQKFKGRVTMTRDTSTSTVYMELSSLRSEDTAVYYCARGDYDGAGFAYWGQGTLVTVSS
notes: Expressed in ExpiCHO as #19-1 scFv-Fc and purified by protein A and SEC; also called humanized scFv #19-1; scFv antibody #19-1; not shown: Human IgG-Fc tag fused C-terminal to the scFv, and any hinge or linker to it
B3: mesothelin-specific scFv #45 (purified from E. coli) (scFv)
scFv: DIVLTQSPAIMSTSPGEKVTMTCTASSSVSYMHWYQQKSGTSPKRWIYDTSKLASGVPARFSGSGSGTSYSLTISRMEAEDAATYYCQQWSSYPLTFGAGTKLEMKRGGGGSGGGGSGGGGSQVQLQQPGAELVKPGASVKLSCKASGYTFTSYWMHWVKQRPGQGLEWIGMIHPNSGGTNYNEKFKSKATLTVDKSSSTAYMQLSSLTSEDSAVYYCARYYYGNYVWYFDVWGTGTTVTVSA
notes: also called anti-MSLN scFv; not shown: His tag (Ni-NTA purification, anti-HISx6 detection) and any other pmopac12 vector tag
B4: mesothelin-specific scFv #19 (purified from E. coli) (scFv)
scFv: DIVITQSPAIMSASPGEKVTMTCSASSSVSYMHWYQQKSGTSPKRWIYDTSKLASGVPARFSGSGSGTSYSLTISSMEAEDAATYYCQQWSSNPLTFGAGTKLEIKRGGGGSGGGGSGGGGSQVQLQQSGPELVKPGASVKISCKASGYSFTDYNMNWVKQSNGKSLEWIGVINPNYGTTSYNQKFKGKATITADTSSNTAYLQLSSLTSEDSAVYYCAKGDYDGAGFAYWGQGTLVTVSA
notes: also called mouse scFv #19; anti-MSLN scFv; not shown: His tag (Ni-NTA purification, anti-HISx6 detection) and any other pmopac12 vector tag

How the values were obtained:
[1] = biological target: T1, MSLN (ACRO) (human, UniProt Q13421, PE-conjugated (site not given)); experiment: FACS of PBNK cells transduced with the #19-1 CAR, stained with PE-conjugated MSLN antigen 'MSLN (ACRO)' (B4-A vs SSC-A); also printed as 26%; Mock (empty vector) cells 0.24
T1 construct: soluble antigen, PE-conjugated; also called PE-conjugated MSLN antigen
T1 sequence (Q13421 other isoform, or with tags, fused parts or gaps limits assumed): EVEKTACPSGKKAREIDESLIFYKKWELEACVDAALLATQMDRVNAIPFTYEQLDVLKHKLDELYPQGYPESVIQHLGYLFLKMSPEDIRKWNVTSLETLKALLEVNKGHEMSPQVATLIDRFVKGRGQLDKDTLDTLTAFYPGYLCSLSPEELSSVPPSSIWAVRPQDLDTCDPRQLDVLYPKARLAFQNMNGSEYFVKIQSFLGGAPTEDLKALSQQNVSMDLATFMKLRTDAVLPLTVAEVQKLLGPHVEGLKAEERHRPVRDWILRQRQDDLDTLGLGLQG
Source text: A mesothelin-specific chimeric antigen receptor construct virus was produced in the same manner as in Example 8 above, and then natural killer cells were used as immune 5 effector cells to be genetically engineered to express the chimeric antigen receptor. As such natural killer cells, PBMC (Human PB MNC) cells were purchased from StemCell, cultured for 10 days, and used after differentiation into PBNK cells. PBMC and PBNK cells, as well as lentivirus-transduced PBNK cells described below, were all cultured in NK MACS medium containing 100 µg/mL of streptomycin, 100 units/mL of penicillin, 10 ng/mL of rhIL-15, and 500 IU of rhIL-2. Culture of all cells was performed in a 5% CO₂ (95% air) environment at 37° C. For expression of the mesothelin-specific CAR, 5×10⁵ PBNK cells and the produced antigen receptor construct virus with an MOI of 2 were added to a 24-well plate, and then for induction of transduction, PGE2 (prostaglandin E2) and LentiBOOST (lentiviral gene transfer inducer) were used, thereby generating NK cells expressing the mesothelin-specific CAR. […]

[2] = biological target: T2, biotinylated mesothelin of SEQ ID NO: 1 (human, UniProt Q13421 296-598, biotinylated (site not stated)); experiment: FACS of 293T cells transduced with the #19-1 CAR, biotinylated mature mesothelin plus PE-streptavidin (B4-A vs SSC-A)
T2 construct: also called biotinylated mature form of the mesothelin antigen
T2 sequence (Q13421 other isoform, or with tags, fused parts or gaps limits assumed): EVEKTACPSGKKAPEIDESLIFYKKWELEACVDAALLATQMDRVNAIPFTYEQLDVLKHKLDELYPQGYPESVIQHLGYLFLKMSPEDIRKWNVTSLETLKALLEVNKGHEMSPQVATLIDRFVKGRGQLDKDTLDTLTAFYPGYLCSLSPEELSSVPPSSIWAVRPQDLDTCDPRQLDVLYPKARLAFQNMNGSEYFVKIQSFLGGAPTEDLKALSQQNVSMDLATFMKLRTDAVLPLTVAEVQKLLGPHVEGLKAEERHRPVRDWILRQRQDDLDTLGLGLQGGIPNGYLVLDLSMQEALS
Description: The generated cells were cultured for 2 days. […] Then, biotin was fluorescently labeled using PE-conjugated streptavidin protein and FACS analysis was performed.

[3] = biological target: T3, recombinant human mature MSLN (SEQ ID NO: 1) (human, UniProt Q13421 296-598); experiment: SPR, mature MSLN immobilized on CM5 chip, #19-1 scFv-Fc injected in two-fold dilutions, 1:1 depletion corrected binding model
T3 construct: Immobilized by amide coupling on a CM5 chip for SPR; also called mesothelin; recombinant human mesothelin protein antigen
Description: The binding affinity of the humanized antibody #19-1 purified in Example 6 to mesothelin was evaluated by surface plasmon resonance (SPR) method. First, recombinant human mature MSLN (SEQ ID NO: 1) was immobilized by an amide bond on the surface of a carboxymethyldextran (CM5) chip at densities of about 560 RU and 520 RU. Next, two-fold serial dilutions of humanized antibody #19-1 were injected at a constant flow rate. The association and dissociation rates of the protein complex (complex of humanized antibody #19-1 and mature MSLN) were monitored for 180 and 540 seconds, respectively. Referencing was performed on a blank flow cell. Finally, the binding affinity of humanized antibody #19-1 to mesothelin was determined using the 1:1 depletion corrected binding model.

[4] = biological target: T4, MSLN mature form-his (human, UniProt Q13421 296-598, biotinylated (site not stated) in the ELISA of Example 2; detected with SA-APC in the yeast single-clone FACS); experiment: Direct-binding ELISA: scFv coated on the plate, biotinylated MSLN mature form-his titrated, streptavidin-HRP, A450; the half-maximal value is headed 'IC50 (M)' in the drawn table, row 'Mature MSLN'
T4 construct: also called mesothelin mature form-his antigen; biotinylated MSLN-his; not shown: His tag
Description: (§1) 100 ng of the scFv protein purified in Example 1 was added to each well of a plate and refrigerated for 15 hours, thereby coating the plate with the protein. After incubation, each well was blocked with 200 μL of PBS (3% BSA) for 1 hour at room temperature. Biotinylated MSLN-his protein was serially diluted 1/5 from 10⁻⁶ M and then bound to the anti-MSLN scFv, coated on the ELISA plate, for 1 hour at room temperature. Each well was washed three times with PBST (0.05% tween 20) wash buffer, and then treated with HRP-conjugated streptavidin (Abcam) (diluted 40,000:1) for detection of biotinylated […] and incubated at room temperature for 1 hour. Each well was washed three times with PBST (0.05% tween20) wash buffer, and then treated with TMB and incubated at room temperature for 20 minutes. After treatment with 2M H₂SO₄, the absorbance at 450 nm was measured.

[5] = biological target: T4, MSLN mature form-his; experiment: Direct-binding ELISA: scFv coated on the plate, biotinylated MSLN mature form-his titrated (M), streptavidin-HRP, A450
Description: as §1

Binder	% Parent in gate P24 [1] [%]	% Parent in gate P4 (cells binding 'Mature MSLN') [2] [%]	Kd [3] [nM]	IC50 [4] [nM]	EC50 (read off the curve) [5] [nM]
B1	25.6	54.8			
B2			80.8		
B3				9.43	~8
B4				2.43	~3
